According to PMC3354570 (Structure(London, England:1993), 2012):

Molecular target: the molecule itself
Test: AUC

B1: human apolipoprotein A-IV core domain, residues 64-335 (domain or fragment, UniProt P06727 84-355, looked up)
chain: ATELHERLAKDSEKLKEEIGKELEELRARLLPHANEVSQKIGDNLRELQQRLEPYADQLRTQVSTQAEQLRRQLTPYAQRMERVLRENADSLQASLRPHADELKAKIDQNVEELKGRLTPYADEFKVKIDQTVEELRRSLAPYAQDTQEKLNHQLEGLTFQMKKNAEELKARISASAEELRQRLAPLAEDVRGNLRGNTEGLQKSLAELGGHLDQQVEEFRRRVEPYGENFNKALVQQMEQLRQKLGPHAGDVEGHLSFLEKDLRDKVNSFF
stoichiometry N: 2
